Like-named read-outs stand apart in the source and are kept apart here. Square brackets hold non-standard residues; d marks the D form. Ends that are not written are not given here. pS = N[C@@H](COP(=O)(O)O)C(=O)O
B1: bovine β-CN: Bovine beta-casein (protein, UniProt P02666 16-224, looked up)
Beta-casein: RELEELNVPGEIVESLSSSEESITRINKKIEKFQSEEQQQTEDELQDKIHPFAQTQSLVYPFPGPIPNSLPQNIPPLTQTPVVVPPFLQPEVMGVSKVKEAMAPKHKEMPFPKYPVEPFTESQSLTLTDVENLHLPLPLLQSWMHQPHQPLPPTVMFPPQSVLSLSQSKVLPVPQKAVPYPQRDMPIQAFLLYQEPVLGPVRGPFPIIV
B2: 4P: Human β-CN variant with four SerP residues, all three Ser in the target sequence phosphorylated (protein, UniProt P05814 16-226, looked up)
Beta-casein: RETIESLSSSEESITEYKQKVEKVKHEDQQQGEDEHQDKIYPSFQPQPLIYPFVEPIPYGFLPQNILPLAQPAVVLPVPQPEIMEVPKAKDTVYTKGRVMPVLKSPTIPFFDPQIPKLTDLENLHLPLPLLQPLMQQVPQPIPQTLALPPQPLWSVPQPKVLPIPQQVVPYPQRAVPVQALLLNQELLLNPTHQIYPVTQPLAPVHNPISV
modifications: four phosphoserines
B3: 5P: Human β-CN variant with five phosphorylated Ser residues (protein, UniProt P05814 16-226, looked up)
Beta-casein: B2 Beta-casein
modifications: five phosphoserines
notes: Human β-CN variant with five phosphorylated Ser residues
B4: 3P: Human β-CN variant with three phosphorylated Ser residues (protein, UniProt P05814 16-226, looked up)
Beta-casein: B2 Beta-casein
modifications: three phosphoserines
notes: Human β-CN variant with three phosphorylated Ser residues
B5: 1P: Human β-CN variant with one phosphorylated Ser residue (protein, UniProt P05814 16-226, looked up)
Beta-casein: B2 Beta-casein
modifications: one phosphoserine
notes: Human β-CN variant with one phosphorylated Ser residue
B6: 2P: Human β-CN variant with two SerP residues, only two of three Ser in the target sequence phosphorylated (protein, UniProt P05814 16-226, looked up)
Beta-casein: B2 Beta-casein
modifications: two phosphoserines

Key:
[1] = test system: bone specific gravity (femurs and tibias); test: Bone specific gravity in growing rats fed a high sucrose diet; type: in vivo, Sprague-Dawley rats; conditions: high sucrose diet for 5 weeks, 6.25 or 3.125 mmol/kg of diet, both groups
Text: A high sucrose diet is associated with a decrease in bone specific gravity in growing rats (reflecting reduced calcium and phosphorous content). See J. Nutr. 128:1807-1810 (1998). This decrease in bone density is reversed or prevented by carbamoyl phosphate supplementation. Sprague-Dawley rats were fed a high sucrose diet for 5 weeks, supplemented with carbarnoyl phosphate at either 6.25 or 3.125 mmol/kg of diet. […] Thus, carbamoyl phosphate modifies the effect of a high sucrose diet on bone growth.

[2] = 3P motif versus 2P motif; cited from earlier work
[3] = cited from earlier work
[4] = calcium binding, human β-CN variants by number of phosphorylated Ser residues, calculated from published binding studies, read-out: Average dissociation Constant

Molecule | Kd [3, 4] | also measured
NC(=O)OP(=O)(O)O [carbamoyl phosphate] | – | specific gravities of femurs and tibias versus control rats receiving standard lab chow [1]: not significantly different; specific gravities of femurs and tibias versus rats on the same diet without carbamoyl phosphate [1]: significantly higher
3P variant: Reynolds (WO 98/40406) 3P variant having the sequence motif SerP-SerP-SerP-Glu-Glu (SEQ ID NO: 1) ([pS][pS][pS]EE) | – | calcium and phosphate binding strength relative to 2P synthetic homologues having the motif SerP-SerP-Glu-Glu [2]: 2.5 times
B1 | – | Kd ([3]; bovine β-CN, read-out: calcium dissociation constant): 650 µM
B2 | 810 µM | –
B3 | 420 µM | –
B4 | 860 µM | –
B5 | 1170 µM | –
B6 | 1210 µM | –
